{"source": "patent US20220143148A1", "about": "“COMPOSITIONS AND METHODS FOR MODULATING CGRP SIGNALING TO REGULATE INTESTINAL INNATE LYMPHOID CELLS” (The Broad Institute, Inc., priority 2019, published 2022)", "molecules": {"B1": {"name": "OVA (protein, UniProt P01012 2-386, looked up)", "Ovalbumin": "GSIGAASMEFCFDVFKELKVHHANENIFYCPIAIMSALAMVYLGAKDSTRTQINKVVRFDKLPGFGDSIEAQCGTSVNVHSSLRDILNQITKPNDVYSFSLASRLYAEERYPILPEYLQCVKELYRGGLEPINFQTAADQARELINSWVESQTNGIIRNVLQPSSVDSQTAMVLVNAIVFKGLWEKAFKDEDTQAMPFRVTEQESKPVQMMYQIGLFRVASMASEKMKILELPFASGTMSMLVLLPDEVSGLEQLESIINFEKLTEWTSSNVMEERKIKVYLPRMKMEEKYNLTSVLMAMGITDVFSSSANLSGISSAESLKISQAVHAAHAEINEAGREVVGSAEAGVDAASVSEEFRADHPFLFCIKHIATNAVLFFGRCVSP"}}, "tested_on": "small intestinal immune cells", "experiment": "Droplet-based scRNA-seq of small intestinal immune cells (LP and PP), OVA vs PBS, clustering and differential expression", "format": "in vivo, mouse", "settings": "cluster ID 6, PP, OVA vs PBS", "source_text": "To comprehensively characterize small intestinal immune cells, Applicants generated scRNA-Seq profiles for 58,067 immune cells collected from lamina propria (LP) and Peyer's patch (PP) regions at steady state and after induction of a type 2 inflammatory reaction to ovalbumin (OVA) (Brandt et al., 2003) (FIGS. 1A and 8A). To ensure sufficient representation of rare cells, Applicants combined a normalization strategy—removing by flow sorting either a portion of IgD+ naïve B cells, which are the most abundant cell type in PPs, or all CD19+ and CD3+ T cells (FIG. 8B, Methods)—with profiling of a sufficiently large number of cells number (P>0.99 to recover at least 15 cells from each cluster, Methods) by massively parallel scRNA-seq (Haber et al., 2017) (Methods). Applicants obtained 36,797 and 21,270 high quality cells passing initial filtering (Methods) from PP and LP regions, respectively.\nOverall, Applicants annotated 27 cell subsets across the two compartments, spanning T cells, B cells, ILCs, dendritic cells (DCs), myeloid cells and stromal cells, in frequencies ranging from 0.07% to 14%. Briefly, Applicants first partitioned the cells from the PP regions by unsupervised clustering (Methods) into 46 clusters, retained the 97% of cells that were robustly assigned cell identities in each cluster (Methods), assigned the cells from the LP regions to the 46 clusters using a classifier (Methods), and visualized the data with scvis (Ding et al., 2018), a deep generative model-based method (FIGS. 1B and 8C, Methods). Next, Applicants identified genes that were differentially expressed between the cells in each cluster and the remaining cells (Table 1, Methods), as well as between pairs of clusters (Table 2), to elucidate identities of similar cell types/states. Applicants excluded from downstream analysis clusters mostly consisting of contaminants from epithelium, likely doublets, or cells with a small number of Unique Molecular Identifiers (UMIs) (FIGS. 1C and 8D), or lacking distinct markers (Methods). Altogether, Applicants retained 27 clusters spanning 85% of the cells and each associated with distinct marker genes (FIG. 8E, Methods).\nTo induce allergic reaction to OVA, 6 to 7 weeks old mice were sensitized twice, two weeks apart, with 50 μg of OVA plus 1 mg of aluminum potassium sulfate adjuvant via intraperitoneal injection. Two weeks later, mice were orally administered with 50 mg of OVA on every other day for a total of five times. 1 μg of α-CGRP peptide was administered simultaneously when indicated. Mice were deprived of food for 3-4 hours in cages with wood chip bedding for limiting antigen degradation in the stomach before each intragastric challenge.\nIsolation of cells from Peyer's patches (PPs). Peyer's patches (PPs) were carefully dissected from the small intestine under a stereo microscope using a fine scissor, pierced once with a fine forcep. Tissues were digested in freshly made digestion buffer (RPMI-1640 containing 100 μg/ml Liberase™ and 50 μg/ml DNase I at 37° C. on a roto-mixer. After 15 min, tissues were very gently mixed using a 1 ml pipette. The supernatant was collected and added to ice-cold MACS buffer (pH 7.4; PBS plus 2% FCS and 2 mM EDTA). Pre-warmed (37° C.) fresh digestion buffer was added to the remaining tissues. After rotation at 37° C. for 15 min, the mixture was vigorously mixed using a 1 ml pipette for 1 min. Supernatants from the two steps were combined and passed through 70 μm filters and stained for FACS (below).\nIsolation of cells from the lamina propria (LP). The small intestines were opened longitudinally and washed in ice-cold PBS. For scRNA-seq, roughly 0.5 cm of fragments from each of the distal, middle and proximal regions without visible PPs were collected. Epithelial cells were dissociated by tissue rotation in pre-warmed (37° C.) PBS containing 10 mM EDTA at 37° C. for 15 min, followed by additional incubation on ice for 15 min. Tissues were then shaken vigorously. […]"}
{"molecule": "B1", "values": [{"measurement": "Dnajc7: LN (average fold change)", "result": 0.197}, {"measurement": "Dusp1: LN (average fold change)", "result": "−0.366"}, {"measurement": "Dusp5: LN (average fold change)", "result": "−0.167"}, {"measurement": "Dusp18: LN (average fold change)", "result": "−0.789"}, {"measurement": "Egr1: LN (average fold change)", "result": "−0.987"}, {"measurement": "Emp3: LN (average fold change)", "result": 0.172}, {"measurement": "Erdr1: LN (average fold change)", "result": "−0.520"}, {"measurement": "Fabp2: LN (average fold change)", "result": "−1.495"}, {"measurement": "Fam46c: LN (average fold change)", "result": "−0.440"}, {"measurement": "Filip1l: LN (average fold change)", "result": "−0.295"}, {"measurement": "Fkbp5: LN (average fold change)", "result": 0.573}, {"measurement": "Fosb: LN (average fold change)", "result": "−0.556"}, {"measurement": "Fosl2: LN (average fold change)", "result": "−0.387"}, {"measurement": "Foxp1: LN (average fold change)", "result": "−0.169"}, {"measurement": "Fyn: LN (average fold change)", "result": "−0.230"}, {"measurement": "Gapdh: LN (average fold change)", "result": 0.206}, {"measurement": "Gapt: LN (average fold change)", "result": "−0.204"}, {"measurement": "Gnb1: LN (average fold change)", "result": "−0.247"}, {"measurement": "Grasp: LN (average fold change)", "result": "−0.617"}, {"measurement": "Gtf2i: LN (average fold change)", "result": 0.283}, {"measurement": "H2-Aa: LN (average fold change)", "result": 0.220}, {"measurement": "H2-Ab1: LN (average fold change)", "result": 0.238}, {"measurement": "H2-Eb1: LN (average fold change)", "result": 0.228}, {"measurement": "H2afj: LN (average fold change)", "result": 0.166}, {"measurement": "Hes6: LN (average fold change)", "result": 0.290}, {"measurement": "Hist1h1c: LN (average fold change)", "result": 0.792}, {"measurement": "Hist2h4: LN (average fold change)", "result": 1.036}, {"measurement": "Ier2: LN (average fold change)", "result": "−0.265"}, {"measurement": "Ier5: LN (average fold change)", "result": 0.332}, {"measurement": "Ifi30: LN (average fold change)", "result": 0.256}, {"measurement": "Ifrd1: LN (average fold change)", "result": "−0.459"}, {"measurement": "Igha: LN (average fold change)", "result": 0.596}, {"measurement": "Igkc: LN (average fold change)", "result": 0.194}, {"measurement": "Itpkb: LN (average fold change)", "result": "−0.230"}, {"measurement": "Jun: LN (average fold change)", "result": 0.499}, {"measurement": "Junb: LN (average fold change)", "result": "−0.174"}, {"measurement": "Jund: LN (average fold change)", "result": "−0.422"}, {"measurement": "Kdm6b: LN (average fold change)", "result": "−0.488"}, {"measurement": "Klf4: LN (average fold change)", "result": "−0.763"}, {"measurement": "Klk1: LN (average fold change)", "result": 0.243}, {"measurement": "Kmt2e: LN (average fold change)", "result": "−0.156"}, {"measurement": "Lag3: LN (average fold change)", "result": 0.315}, {"measurement": "Lgals1: LN (average fold change)", "result": 0.174}, {"measurement": "Lmnb1: LN (average fold change)", "result": "−0.415"}, {"measurement": "Ly6c1: LN (average fold change)", "result": "−0.173"}, {"measurement": "Lyz1: LN (average fold change)", "result": "−1.858"}, {"measurement": "Mcl1: LN (average fold change)", "result": "−0.199"}, {"measurement": "Mcpt1: LN (average fold change)", "result": 0.479}, {"measurement": "Mcpt2: LN (average fold change)", "result": 0.749}, {"measurement": "Mir142hg: LN (average fold change)", "result": "−0.649"}, {"measurement": "Mpeg1: LN (average fold change)", "result": 0.185}, {"measurement": "Napsa: LN (average fold change)", "result": 0.245}, {"measurement": "Neat1: LN (average fold change)", "result": 0.364}, {"measurement": "Nfkbia: LN (average fold change)", "result": "−0.191"}, {"measurement": "Nfkbiz: LN (average fold change)", "result": "−0.288"}, {"measurement": "Npc2: LN (average fold change)", "result": 0.166}, {"measurement": "Nr4a1: LN (average fold change)", "result": "−0.422"}, {"measurement": "Nr4a3: LN (average fold change)", "result": "−0.556"}, {"measurement": "Odc1: LN (average fold change)", "result": "−0.325"}, {"measurement": "Os9: LN (average fold change)", "result": 0.265}, {"measurement": "Pik3ip1: LN (average fold change)", "result": 0.445}, {"measurement": "Pim1: LN (average fold change)", "result": "−0.188"}, {"measurement": "Plek: LN (average fold change)", "result": "−0.205"}, {"measurement": "Plekho2: LN (average fold change)", "result": "−0.406"}, {"measurement": "Pltp: LN (average fold change)", "result": 0.260}, {"measurement": "Pnrc1: LN (average fold change)", "result": "−0.212"}, {"measurement": "Ppia: LN (average fold change)", "result": 0.186}, {"measurement": "Ppp1r16b: LN (average fold change)", "result": "−0.419"}, {"measurement": "Ppp2ca: LN (average fold change)", "result": "−0.356"}, {"measurement": "Psap: LN (average fold change)", "result": 0.202}, {"measurement": "Ptp4a1: LN (average fold change)", "result": "−0.201"}, {"measurement": "Ptpre: LN (average fold change)", "result": "−0.452"}, {"measurement": "Rel: LN (average fold change)", "result": "−0.305"}, {"measurement": "Rgs1: LN (average fold change)", "result": 0.548}]}
